In the DeepSol protein solubility set:

Assay: soluble on expression in E. coli; label from the status in PepcDB or PDB records

Row | Sequence | soluble on expression in E. coli
1 | MYQKKDRACRIRRKQCKLFGDWQKSVITQLKTIQDKNISIHKAFGCMIRLAANLFYAHSKIIHFMSEEAGEDAQRKAAEREAKKAEVRKRLEEAGNKKKAKKGFLTPERKKKLRKLLMVKAAEDLKRQQLLKEQERQKALADRTISLPNVDSIDDKGQLEKIYNDLWARLTQLEEEKYDINYVVSQTEAEINSLTIEVNDLRGKFVKPSLKKVSKYDNKFKKSGESKAGTKEDFRANLKIVKKDVMEAIVNVKKKDDKPDWSKKNKDAKAEDSAPAAVAPEAEPVAEEAEAEPEAEEEEGEEEEEE | not soluble
2 | MKKISEQKRKHLENLVDDQGIIGALAIDQRGALKRMMGKYKEVTAQEISDFKVLVSRCLTPETSAILLDPEYGLAAAENRAQTSGLLLAYEKTGYDASTPGRLPDSLDVWSVKRLKEAGADACKFLLYYDVDESEAINERKKAYIERIGSECLAEEIPFFLEIVSYDANNSDSASKEYAKVKPHKVIEAMKEFSKDRYNVDVLKVEVPVNMNFVEGFGTESLYSQDEAQAFFNMQSEATQLPFIFLSAGVSATMFQETLKFAKKAGSSFNGVLCGRATWADGVLPFVQQGAEAAVAWLETTGKTNVEELNQVLRESAVSVFEKIQ | not soluble
3 | NSDSECPLSHDGYCLHDGVCMYIEALDKYACNCVVGYIGERCQYRDLKWWELR | soluble
4 | MSFELPALPFAKDALEPHISAETLDYHHGKHHNTYVVKLNGLIPGTEFEGKTLEEIIKTSTGGVFNNAAQIWNHTFYWNCLAPNAGGQPTGAVAAAIDAAFGSFEEFKAKFTDSAINNFGSSWTWLVKNADGSLAIVNTSNAATPLTDEGVTPLLTVDLWEHAYYIDFRNVRPDYMGAFWSLVNWSFVEENLAK | soluble
5 | MAHHHHHHMLSHSSQLCSLWIESARVIRLDHCRCPGRLVSTGLGVSSEIRKTNLNGKSYTLDPVEMEPVFGVNRASDFSEKGGLCSTNETNEKNVLLSGGDIVSRNQKEVDKVERVALVAEKEHEEEEPLARNLHNTIGPTPYRVSWYDYGSVSPSKRFTYWAYRRLKELPTDWQEYYRRMLYQEISAARYVNQTWDCFMMVVDGYRKAKWILKKYGISIDESLIPKPYNNFWEETTHEERVWAHRRSHQMKELQALYRDEDELVFGAHTMDRREVSHGSIKNVQTGMQGGTPVHALDLPAPCESEIKTSPQIEDMSSALMSSIEDDKLWNPVLRSRIHTRRSREEVELYSFEDDEEDENSPS | soluble
6 | MRGQNRRGYRNIEGRLSLSSHSSHSSPRQTHVTNLRPAEIKVVQDVVDGCYVATDDVLNLSNFSKNTEFVERDMLMCLTKTRVMSVVLQHIGYKYPRISGISFSNNRLCHLDHLSSLSSISKFLKFLDLSHNQISSGEELKKLGTIPVETVFFEGNPVCEKFVQCAEYANFIQKTFPKCSNLDGMEVEPKPDHNRIEQIIPFRNGYYGSDEVRTLVEEFIITYYKIYDGADGQQTRKQLLDAYDTNNSTFTHTVVCLWDPIKFVMYPDSESYRMYLRTSHNVLNQEYFAANRASRISHGAMDIVVALSRLPATIHLMDTFVVDVFLVSATLLGFTLHGTFRDGPSAIKPENTEEHDNYFTRTFMVAPRGEGKVAIVSDQLFISSMSKRRGDQYRMLVETATDIDQ | not soluble
7 | MSLGPPSIARTVTPNASIPKTPEDISILPVNDEPGYLQDSKTEQNYPELADAVKSQTSQTCSEEHKYVIMIDAGSTGSRVHIYKFDVCTSPPTLLDEKFDMLEPGLSSFDTDSVGAANSLDPLLKVAMNYVPIKARSCTPVAVKATAGLRLLGDAKSSKILSAVRDHLEKDYPFPVVEGDGVSIMGGDEEGVFAWITTNYLLGNIGANGPKLPTAAVFDLGGGSTQIVFEPTFPINEKMVDGEHKFDLKFGDENYTLYQFSHLGYGLKEGRNKVNSVLVENALKDGKILKGDNTKTHQLSSPCLPPKVNATNEKVTLESKETYTIDFIGPDEPSGAQCRFLTDEILNKDAQCQSPPCSFNGVHQPSLVRTFKESNDIYIFSYFYDRTRPLGMPLSFTLNELNDLARIVCKGEETWNSVFSGIAGSLDELESDSHFCLDLSFQVSLLHTGYDIPLQRELRTGKKIANKEIGWCLGASLPLLKADNWKCKIQSAEGHHHHHH | soluble
8 | GMREEKIREALNAHWQASAAGDFDAEHDIYDDDAICDYPQSGERILGRMNLQALRSHHPGKPAGFEVRRIQGEGNLWITEYSISYNGRPAYTVSIMEFRNGKVVHETQYFSDPFEAPGWRSQWVQQIG | soluble
9 | MGSDKIHHHHHHMKNRAGEYRTNLTGELQYRSFLPYPLPPSPPIELDEETIKLLAKANRSIGILEGMSRQIPDIDLFVSMYVRKEALLSSQIEGTQVTLDDILDPNIEENTNQNVADVINYIKASHYGSARLAELPLCNRLLKEIHEILMQDVRGGEKSPGEFRSSQNWIGPAGSTLRDARYIPPHPEDMLEAMSDLEKFINSEDELDPLIKIALIHYQFETIHPFLDGNGRIGRLLIALYLINQNLLSHETLYISYFLKRNRIEYYDRLTEVRSKGNFEQWLKFFLLAAYESAQDAIDTIERILKLHYKNVEVVKNTGKASKTVMKVFNYLESSPIIDIKKTSLALELSFNTVSNAVNKLVELGILKQTENVRRSRVFAYEEYLEILRKDT | not soluble
10 | DAGQANDDALRVALQFKPVADFSPYSDDAVLNLRMGAVETLVTLDEDGKPKPVLAEKWEMKDDRTAVLTLRKDVSFHDGSKLTGEVVKNALDHALSATTRPKGLGKADLKVEATGESEVTITAPEADPILVQRLTDPGAAILSKDAYAGENPDPFNHGTGPFKLVKKESDGSVSAEAFADYWNGTPETSALKVSFIEDGAARANAFRAGDFDVIKGVPVVALPELSDAHVTDVHLPRATLLHLNAEKGVFADAKLRTAVAGAIKTDAIVDKIYEGKANKTEGSLFNLDAQWAQKAKPLAGAPADATIGKGKTVRLATWDSRAELPETANLIADQLRALGFNVDITVADYASLENRLLDGSFDAVIGSRSYMIGAGDPVAFLDTDFTCDGSYNLSRLCDPEIDKKIAAAKSEKDLDTRHKD | not soluble
11 | MRFLIPIIFTTLPLCLQAQEDPCASAPSEAAKIMCKQIHRWDDGARAASKKKKIALPPGMAKGMAAEFAPIASNIYQCMDLPCLCSYLRGTASGNGCTLPNGRPLQKSVRKEYRTLTDDERNRLHAAFRALKNNGEYERIGRIHSQMSAAGGAHSGPAFLPWHREFVKRVEFALRQVDPTVNLPYWDSTLDSRLPRPADTIMFSDYLMGSTGLVNDGPFTNWRTLAGRAQILRAVGAQGAPLSQNDIDFVMRQTQIDQVLSFTAPQQGCPYRTDFNCLEYTHGNVHIFVGGDMFDTATSSNDPSFFLHHAFIDFVWEEWRLARQSRADREIAFPPDNQLCASAQHFGASPMQPFSPMRNIDGLSNKYTDNLYSYAPRPTCQAGGDCGSKFLFCDTSTGAARCVSRIRPGSQCGQFRVNPCFSGICQNGVCVLSSTAPRPTPAPTTPTPQNPVQSQESCFNENQCCASWAASGECSRNTAYMNEWCKASCGVCKPKYRLADDCTDRHTQCSSWSRSGECTKNQLWMTENCRKSCNKCGRSRAQECGGGGTTVTTTTPAPAQQCDNSDGCFNENVCCAVWGLMGECRKNTRYMACNCRVSCGHCYPEDYNYGSCVDYHRSCAGWARVGECQKNPWMAENCRSSCNSCYTQSELRRMCGTTAGSVAPVAQVRQTNPSRQPPRGGWGRDDFGDNGGWGGNGGGGWGNNDPWGGSRWGGGRGGWGGGGWGGGGWGKRSIRAANASISMPSFDPDLL | not soluble
12 | MSGDFDTIRDASSPDEVQLVRLLEEKIKSLQIEIENLRKELNYYKAEMEKMLSPPLIEAVVLDVLPDGRVLVRSSSGPNLVVNIASHIDQKLIKPGISVALNQRGSTILEVLPQKE | soluble
13 | MSRISSMAYKWKQPPPPINDDSRHRSQSNSRLFDRIYGQMHRGNKAFEHTTSYDESISGFMRRRFAGNGERALPLRYGTNPHQKDDAELYIVEDEMPIKVLNGSPGYINILDGLNGWQLVKELSDATKMPAAASFKHVSPAGAAVGLPLNETEAACCMVSDLPIDTKKPSLAAAYARARGADRMSSFGDFIALSEKCDELTAKIINREVSDGVVAPDFDPAALSLLAKKKNGNYCVLKINPNYLPSETEERTVFGLRLRQKRNNAVINAETFNNVVGSANELNKQAIDDLIVATIALKYAQSNSVCFAHRGQVIGMGAGQQSRIHCTRLAGDKAMNWWLRQHPTVLSLPWKNAIKRSEKSNAIDVLCSGVLGSEVCNFKFNRPLSYFSLVTNL | not soluble
